Experimental data: patent US20220195043A1 (BEIJING MABWORKS BIOTECH, published 2022)
Like-named read-outs stand apart in the source and are kept apart here.

T1: monkey CD3ε-his (Cat #: 90047-C08H, SinoBiological, China) (monkey, UniProt Q95LI5 22-117)
T1 construct: Bought protein; also called monkey CD3ε protein; recombinant monkey CD3ε
T1 sequence: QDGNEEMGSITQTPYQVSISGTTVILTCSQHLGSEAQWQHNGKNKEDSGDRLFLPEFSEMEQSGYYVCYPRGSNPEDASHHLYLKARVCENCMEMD

T2: human CD20 (HEK293A/human CD20 cells) (human, UniProt P11836 1-297)
T2 construct: Stably expressed on HEK293A cells; also called hCD20; HEK293A/hCD20
T2 sequence: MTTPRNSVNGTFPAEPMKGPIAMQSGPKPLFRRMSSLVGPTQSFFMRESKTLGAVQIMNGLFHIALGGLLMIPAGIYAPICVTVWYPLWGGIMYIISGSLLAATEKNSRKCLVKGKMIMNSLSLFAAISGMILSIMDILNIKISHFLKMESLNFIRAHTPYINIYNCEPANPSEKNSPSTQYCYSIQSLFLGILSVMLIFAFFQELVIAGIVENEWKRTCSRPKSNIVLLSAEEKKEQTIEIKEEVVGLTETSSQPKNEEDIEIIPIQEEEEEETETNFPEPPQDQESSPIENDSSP

T3: monkey CD20 (HEK293A/monkey CD20 cells) (monkey, UniProt P11836 1-297 (human entry))
T3 construct: Stably expressed on HEK293A cells; also called cynomolgus CD20
T3 chain: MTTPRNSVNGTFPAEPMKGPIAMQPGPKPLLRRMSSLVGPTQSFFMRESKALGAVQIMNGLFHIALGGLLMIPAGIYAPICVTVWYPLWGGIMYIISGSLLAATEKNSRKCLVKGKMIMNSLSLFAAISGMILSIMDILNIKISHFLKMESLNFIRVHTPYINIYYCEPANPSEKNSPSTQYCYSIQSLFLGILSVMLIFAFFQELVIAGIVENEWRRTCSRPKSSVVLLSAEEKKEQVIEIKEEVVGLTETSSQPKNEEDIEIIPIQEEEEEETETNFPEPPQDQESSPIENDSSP


Legend:
[1] = molecular target: T1, monkey CD3ε-his (Cat #: 90047-C08H, …); assay: ELISA: plate coated with monkey CD3ε-his, antibody titrated, HRP goat anti-human IgG, OD 450
[2] = molecular target: T4, human CD3ε-his (Cat #:10977-H08s, SinoBiological, China) (human, UniProt P07766 23-126); assay: SPR (BIAcore 8K); human CD3ε-his coupled to CM5 chip, antibody injected
T4 construct: Bought protein; also called human CD3ε protein; recombinant human CD3ε; not shown: his tag

[3] = molecular target: T4, human CD3ε-his (Cat #:10977-H08s, …); assay: ELISA: plate coated with human CD3ε-his, antibody titrated, HRP goat anti-human IgG, OD 450
[4] = molecular target: T5, human TCR/CD3 complex on cell surfaces (primary human CD4+ T cells; Jurkat cells; human PBMCs) (human, UniProt P07766 23-207); assay: FACS on primary human CD4+ T cells, PE goat anti-human IgG, MFI
T5 construct: whole, on cells; Native complex on cells; the γ, δ, ζ and TCR chains of the complex are present on the cells too; also called human CD3 complexes on cell surfaces; human CD3+ T cells

[5] = molecular target: T1, monkey CD3ε-his (Cat #: 90047-C08H, …); assay: ELISA: plate coated with monkey CD3ε-his, antibody titrated, HRP goat anti-human IgG, OD 450; remark: listed apart in the source
[6] = molecular target: T4, human CD3ε-his (Cat #:10977-H08s, …); assay: ELISA: plate coated with human CD3ε-his, antibody titrated, HRP goat anti-human IgG, OD 450; remark: listed apart in the source
[7] = molecular target: T2, human CD20 (HEK293A/human CD20 cells); assay: FACS on HEK293A/human CD20 cells, PE anti-human IgG secondary antibody, MFI
[8] = molecular target: T4, human CD3ε-his (Cat #:10977-H08s, …); assay: SPR (BIAcore 8K); human CD3ε-his coupled to CM5 chip, antibody injected; remark: listed apart in the source
[9] = molecular target: T2, human CD20 (HEK293A/human CD20 cells); assay: cell-based or functional assay
[10] = molecular target: T4, human CD3ε-his (Cat #:10977-H08s, …); assay: ELISA: plate coated with human CD3ε-his (hCD3ε-his), antibody titrated, HRP goat anti-human IgG, OD450
[11] = molecular target: T3, monkey CD20 (HEK293A/monkey CD20 cells); assay: FACS on HEK293A/monkey CD20 (CynoCD20) cells, PE anti-human IgG secondary antibody, MFI

T4 sequence (P07766 23-126 limits assumed): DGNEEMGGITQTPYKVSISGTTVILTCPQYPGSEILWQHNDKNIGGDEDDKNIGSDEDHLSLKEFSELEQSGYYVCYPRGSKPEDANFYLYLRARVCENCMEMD
T5 sequence (P07766 23-207, one chain of several): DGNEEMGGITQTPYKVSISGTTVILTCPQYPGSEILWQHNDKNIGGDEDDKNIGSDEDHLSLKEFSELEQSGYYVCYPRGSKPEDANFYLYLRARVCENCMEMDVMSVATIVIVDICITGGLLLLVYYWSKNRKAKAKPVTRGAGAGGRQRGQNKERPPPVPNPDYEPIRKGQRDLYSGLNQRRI

Row | EC50 (read off the curve) [1] | kon [2] | EC50 (read off the curve) [3] | EC50 (read off the curve) [4] | EC50 (read off the curve) [5] | EC50 (read off the curve) [6] | EC50 (read off the curve) [7] | Kd [8] | EC50 (read off the curve) [10] | EC50 (read off the curve) [11] | Binder | EC50 of killing of HEK293A/hCD20 cells by T cells, MBS303-2 alone [9] | EC50 of killing of HEK293A/hCD20 cells by T cells, MBS303-2 with 1 µg/ml MIL62 [9]
1 | ~0.06 µg/mL | 119000 M⁻¹ s⁻¹ | ~0.05 µg/mL | ~0.7 µg/mL | ~0.05 µg/mL | ~0.05 µg/mL | – | – | – | – | chimeric anti-CD3 antibody CD3-19 (full length, human IgG1) (antibody, V domains shown, also called chimeric CD3-19 antibody; parent antibody) VH: EVKLLESGGGLVQPKGSLKLSCAASGFTFNSYAMNWVRQAPGKGLEWVARIRSKYNNYATYYADSVKDRFTISRDDSQSILYLQMNNLKTEDTAMYYCVRHGNFGNSYLSYWAYWGQGTLVTVSA VL: QAVVTQESALTTSPGETVTLTCDSSTGAVTTSNYANWVQEKPDHLFTGLIGGTQRSAPGVPARFSGSLIGDKAALTITGAQTEDEAIYFCVLWYSNLWVFGGGTKLTVLG | – | –
2 | – | – | – | – | – | – | ~0.03 µg/mL | 1.79 nM | ~0.06 µg/mL | ~0.06 µg/mL | MBS303-2 (bispecific antibody against CD3 and CD20, MIL220 + MIL221-2) (bispecific antibody, human IgG1, kappa, lambda, L234A L235A, N297A, CD20:CD3 = 2:1) heavy 1: QVQLVQSGAEVKKPGSSVKVSCKASGYAFSYSWINWVRQAPGQGLEWMGRIFPGDGDTDYNGKFKGRVTITADKSTSTAYMELSSLRSEDTAVYYCARNVFDGYWLVYWGQGTLVTVSSASTKGPSVFPLAPSSKSTSGGTAALGCLVKDYFPEPVTVSWNSGALTSGVHTFPAVLQSSGLYSLSSVVTVPSSSLGTQTYICNVNHKPSNTKVDKKVEPKSCDKTHTCPPCPAPEAAGGPSVFLFPPKPKDTLMISRTPEVTCVVVDVSHEDPEVKFNWYVDGVEVHNAKTKPREEQYASTYRVVSVLTVLHQDWLNGKEYKCKVSNKALPAPIEKTISKAKGQPREPQVYTLPPSREEMTKNQVSLSCAVKGFYPSDIAVEWESNGQPENNYKTTPPVLDSDGSFFLVSKLTVDKSRWQQGNVFSCSVMHEALHNHYTQKSLSLSPGK light 1: DIVMTQTPLSLPVTPGEPASISCRSSKSLLHSNGITYLYWYLQKPGQSPQLLIYQMSNLVSGVPDRFSGSGSGTDFTLKISRVEAEDVGVYYCAQNLELPYTFGGGTKVEIKRTVAAPSVFIFPPSDEQLKSGTASVVCLLNNFYPREAKVQWKVDNALQSGNSQESVTEQDSKDSTYSLSSTLTLSKADYEKHKVYACEVTHQGLSSPVTKSFNRGEC heavy 2: QVQLVQSGAEVKKPGSSVKVSCKASGYAFSYSWINWVRQAPGQGLEWMGRIFPGDGDTDYNGKFKGRVTITADKSTSTAYMELSSLRSEDTAVYYCARNVFDGYWLVYWGQGTLVTVSSGGGGSGGGGSGGGGSDIVMTQTPLSLPVTPGEPASISCRSSKSLLHSNGITYLYWYLQKPGQSPQLLIYQMSNLVSGVPDRFSGSGSGTDFTLKISRVEAEDVGVYYCAQNLELPYTFGGGTKVEIKGGGGSGGGGSGGGGSEVQLLESGGGLVQPGGSLRLSCAASGFTFNTYAMNWVRQAPGKGLEWVARIRSKYNNYATYYAISVKDRFTISRDDSKNTLYLQMNSLRAEDTAMYYCVRHGNFGNSYLSYWAYWGQGTLVTVSSASTKGPSVFPLAPSSKSTSGGTAALGCLVKDYFPEPVTVSWNSGALTSGVHTFPAVLQSSGLYSLSSVVTVPSSSLGTQTYICNVNHKPSNTKVDKKVEPKSCDKTHTCPPCPAPEAAGGPSVFLFPPKPKDTLMISRTPEVTCVVVDVSHEDPEVKFNWYVDGVEVHNAKTKPREEQYASTYRVVSVLTVLHQDWLNGKEYKCKVSNKALPAPIEKTISKAKGQPREPQVYTLPPSREEMTKNQVSLWCLVKGFYPSDIAVEWESNGQPENNYKTTPPVLDSDGSFFLYSKLTVDKSRWQQGNVFSCSVMHEALHNHYTQKSLSLSPGK light 2: QAVVTQEPSLTVSPGGTVTLTCQSSTGAVTTNNYANWVQQKPGHAFRGLIGGTKQRAPGVPARFSGSLLGGKAALTLSGVQPEDEAEYYCVLWYSNLWVFGGGTKLTVLGQPKAAPSVTLFPPSSEELQANKATLVCLISDFYPGAVTVAWKADSSPVKAGVETTTPSKQSNNKYAASSYLSLTPEQWKSHRSYSCQVTHEGSTVEKTVAPT | 0.0098 µg/mL | 0.0039 µg/mL
